The text below walks through data of doi:10.1101/2020.05.01.070730 (bioRxiv, 2020).

One data set concerns the target T1, MutS R842E (Pseudomonas aeruginosa, UniProt Q9HY08 1-855, R842E).
T1 sequence: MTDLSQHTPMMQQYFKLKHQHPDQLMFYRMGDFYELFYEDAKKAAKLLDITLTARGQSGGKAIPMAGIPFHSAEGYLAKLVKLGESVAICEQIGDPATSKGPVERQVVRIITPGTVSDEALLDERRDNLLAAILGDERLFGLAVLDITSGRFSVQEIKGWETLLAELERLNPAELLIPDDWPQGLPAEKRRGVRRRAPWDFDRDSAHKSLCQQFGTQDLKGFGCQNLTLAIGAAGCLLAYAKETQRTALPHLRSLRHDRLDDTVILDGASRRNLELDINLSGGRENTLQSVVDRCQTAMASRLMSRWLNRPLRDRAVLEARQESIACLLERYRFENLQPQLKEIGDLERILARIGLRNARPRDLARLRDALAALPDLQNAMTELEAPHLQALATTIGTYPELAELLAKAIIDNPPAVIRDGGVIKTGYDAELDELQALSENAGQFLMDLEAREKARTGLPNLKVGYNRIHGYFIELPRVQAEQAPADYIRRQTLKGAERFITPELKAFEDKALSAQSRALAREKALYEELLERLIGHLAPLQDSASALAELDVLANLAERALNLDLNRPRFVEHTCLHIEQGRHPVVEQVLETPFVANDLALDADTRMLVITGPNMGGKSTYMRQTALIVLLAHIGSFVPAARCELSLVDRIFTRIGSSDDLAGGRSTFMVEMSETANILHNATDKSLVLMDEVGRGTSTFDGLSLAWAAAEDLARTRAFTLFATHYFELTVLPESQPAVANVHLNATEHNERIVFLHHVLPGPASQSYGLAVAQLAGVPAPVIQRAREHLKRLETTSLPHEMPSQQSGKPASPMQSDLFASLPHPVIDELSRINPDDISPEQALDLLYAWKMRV
Put plainly: native PAGE shift.

In the next data set the target is T2, MutS (Pseudomonas aeruginosa, UniProt Q9HY08 1-855).
T2 sequence: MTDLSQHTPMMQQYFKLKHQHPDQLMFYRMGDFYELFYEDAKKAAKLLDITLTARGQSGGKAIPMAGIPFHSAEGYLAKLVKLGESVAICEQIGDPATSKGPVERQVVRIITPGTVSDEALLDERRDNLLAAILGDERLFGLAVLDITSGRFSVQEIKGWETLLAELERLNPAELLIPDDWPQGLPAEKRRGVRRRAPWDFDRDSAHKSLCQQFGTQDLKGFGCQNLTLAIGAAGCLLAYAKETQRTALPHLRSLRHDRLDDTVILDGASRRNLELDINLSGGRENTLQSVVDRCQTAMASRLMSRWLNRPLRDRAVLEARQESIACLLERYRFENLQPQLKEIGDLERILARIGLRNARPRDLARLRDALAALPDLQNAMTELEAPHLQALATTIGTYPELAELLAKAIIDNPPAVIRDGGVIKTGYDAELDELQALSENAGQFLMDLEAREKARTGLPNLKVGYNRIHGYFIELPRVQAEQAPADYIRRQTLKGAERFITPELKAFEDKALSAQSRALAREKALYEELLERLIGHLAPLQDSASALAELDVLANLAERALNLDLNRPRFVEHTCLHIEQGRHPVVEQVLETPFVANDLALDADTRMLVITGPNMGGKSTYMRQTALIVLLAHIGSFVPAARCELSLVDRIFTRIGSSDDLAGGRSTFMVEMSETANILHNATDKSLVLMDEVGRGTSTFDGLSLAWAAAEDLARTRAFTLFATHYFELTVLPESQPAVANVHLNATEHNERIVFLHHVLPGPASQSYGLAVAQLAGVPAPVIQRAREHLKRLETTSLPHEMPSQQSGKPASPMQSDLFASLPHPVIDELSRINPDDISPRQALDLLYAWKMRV
The data set is described as follows: SPR. (Surface plasmon resonance follows binding to a sensor surface in real time, without labels.)

The target of a further data set is T3, MutS E. coli (Escherichia coli, UniProt P23909 1-853).
T3 sequence: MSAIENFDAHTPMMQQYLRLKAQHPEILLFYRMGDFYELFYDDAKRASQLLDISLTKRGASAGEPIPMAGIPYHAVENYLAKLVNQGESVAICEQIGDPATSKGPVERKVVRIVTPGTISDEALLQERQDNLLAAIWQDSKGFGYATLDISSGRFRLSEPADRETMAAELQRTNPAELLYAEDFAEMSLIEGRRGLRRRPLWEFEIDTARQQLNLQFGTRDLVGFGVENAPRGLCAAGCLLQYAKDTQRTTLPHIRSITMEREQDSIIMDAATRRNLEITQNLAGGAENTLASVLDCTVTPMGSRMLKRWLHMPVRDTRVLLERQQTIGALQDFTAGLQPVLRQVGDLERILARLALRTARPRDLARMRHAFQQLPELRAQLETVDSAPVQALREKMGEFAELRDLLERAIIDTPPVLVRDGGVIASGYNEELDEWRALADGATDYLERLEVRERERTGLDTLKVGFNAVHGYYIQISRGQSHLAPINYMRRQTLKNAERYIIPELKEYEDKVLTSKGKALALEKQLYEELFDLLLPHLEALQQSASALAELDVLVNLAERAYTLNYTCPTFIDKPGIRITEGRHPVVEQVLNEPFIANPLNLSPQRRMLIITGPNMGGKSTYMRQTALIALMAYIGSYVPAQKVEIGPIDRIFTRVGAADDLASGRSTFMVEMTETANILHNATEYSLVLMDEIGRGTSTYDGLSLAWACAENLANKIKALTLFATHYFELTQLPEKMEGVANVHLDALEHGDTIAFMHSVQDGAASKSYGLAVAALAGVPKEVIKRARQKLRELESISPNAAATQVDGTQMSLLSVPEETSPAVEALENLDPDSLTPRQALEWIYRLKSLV
The data set is described as follows: native PAGE shift.

For orientation: Kd means the free concentration of one partner at which half of the binding sites on the other are occupied at equilibrium, for simple one-to-one binding. Higher therefore signals a looser complex.

B1: GT-pDNA (GT 8 nt from 3'-OH) (dsDNA)
DNA 1: ATGTGAATCAGTATGGTTGCTATCTGC
DNA 2: ATTTCCTTCAGCAGATAGTAACCATACTGATTCACAT
As for B1, in the data set with MutS R842E, the binding result is recorded as “binds”. In the data set with MutS, this molecule registered a Kd of 53.3 ± 3.7 nM.

B2: GT-dsDNA (GT 18 nt from 3' end) (dsDNA)
DNA 1: ATGTGAATCAGTATGGTTGCTATCTGCTGAAGGAAAT
DNA 2: ATTTCCTTCAGCAGATAGTAACCATACTGATTCACAT
As for B2, in the data set with MutS E. coli, the binding result was “binds”.
